Test results as given in patent US20140017235A1.

Target: human NGF (human), P01138
Test: cell-based or functional assay

Sequence of human NGF (human), P01138 (P01138 122-241 limits assumed): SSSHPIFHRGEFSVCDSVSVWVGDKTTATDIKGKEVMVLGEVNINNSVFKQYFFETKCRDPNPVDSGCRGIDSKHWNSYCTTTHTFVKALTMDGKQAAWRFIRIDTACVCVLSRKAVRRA

B1: antibody E3 (full antibody) (antibody, human IgG2, kappa)
heavy: QVQLQESGPGLVKPSETLSLTCTVSGFSLIGYDLNWIRQPPGKGLEWIGIIWGDGTTDYNSAVKSRVTISKDTSKNQFSLKLSSVTAADTAVYYCARGGYWYATSYYFDYWGQGTLVTVSSASTKGPSVFPLAPCSRSTSESTAALGCLVKDYFPEPVTVSWNSGALTSGVHTFPAVLQSSGLYSLSSVVTVPSSNFGTQTYTCNVDHKPSNTKVDKTVERKCCVECPPCPAPPVAGPSVFLFPPKPKDTLMISRTPEVTCVVVDVSHEDPEVQFNWYVDGVEVHNAKTKPREEQFNSTFRVVSVLTVVHQDWLNGKEYKCKVSNKGLPSSIEKTISKTKGQPREPQVYTLPPSREEMTKNQVSLTCLVKGFYPSDIAVEWESNGQPENNYKTTPPMLDSDGSFFLYSKLTVDKSRWQQGNVFSCSVMHEALHNHYTQKSLSLSPGK
light: not shown
modifications: not checked
antibody concentration that totally blocked NGF-elicited survival of trigeminal neurons: 20 nM
